{"source": "patent US20190330277A1", "about": "(PIRBRIGHT INSTITUTE, published 2019)", "test_in_all_cases": "ELISA, variant from culture supernatant on Ni-NTA plate", "key": {"391-2-DS-Cav1-BZGJ9_gyc5": {"molecular_target": "T1, 391-2-DS-Cav1-BZGJ9_gyc5", "T1 construct": "also called sc-v10", "description": "(§1) Initial assessment of all constructs were performed using a 96-well microplate format for high throughput expression followed by an ELISA-based antigenic evaluation as described previously 17. […] Plasmid DNA and TrueFect-Max (United BioSystems, MD) were mixed and added to the growing cells, and the 96-well plate incubated at 37° C., 5% CO2. One day post transfection, enriched medium (high glucose DMEM plus 25% ultra-low IgG fetal bovine serum, 2× nonessential amino acids, 1× glutamine) was added to each well, and the 96-well plate was returned to the incubator for continuous culture."}, "[1]": {"molecular_target": "T2, sc9-10_DS-CAV1_bRSV(RB94)_Fd_pm1_ig1", "T2 construct": "also called sc-v11", "description": "as §1"}, "[2]": {"molecular_target": "T3, 391-2-DS-Cav1-BZGJ9 Long K226L", "T3 construct": "also called sc-v12", "description": "as §1"}, "[3]": {"molecular_target": "T4, sc9-10_DS-CAV1_bRSV(RB94)_Fd_hp1_fp2_ig1", "T4 construct": "also called sc-v13", "description": "as §1"}, "[4]": {"molecular_target": "T5, RB94 site 0 hRSV bovSurf DS-Cav1 Long FdPL", "T5 construct": "also called sc-v14", "description": "as §1"}, "[5]": {"molecular_target": "T6, sc9-10_DS-CAV1_bRSV(RB94)_Fd_pm1_fp1_ig1", "T6 construct": "also called sc-v15", "description": "as §1"}, "391-2-DS-Cav1-IP-5": {"molecular_target": "T7, 391-2-DS-Cav1-IP-5", "T7 construct": "also called sc-v19", "description": "as §1"}, "391-2_DS-Cav1-tzsc7": {"molecular_target": "T8, 391-2_DS-Cav1-tzsc7", "T8 construct": "also called sc-v21", "description": "as §1"}, "[6]": {"molecular_target": "T9, 391-2-DS-Cav1-BZGJ9 Long S190V", "T9 construct": "also called sc-v23", "description": "as §1"}, "[7]": {"molecular_target": "T10, sc9-10_DS-CAV1_bRSV(RB94)_Fd_pm1_fp2_ig1", "T10 construct": "also called sc-v24", "description": "as §1"}, "391-2_DS-Cav1-tzsc5": {"molecular_target": "T11, 391-2_DS-Cav1-tzsc5", "T11 construct": "also called sc-v25", "description": "as §1"}, "391-2wt-F_SC_11R": {"molecular_target": "391-2wt-F_SC_11R", "description": "as §1"}, "391-2-DS-Cav1-BZGJ9_gyc7": {"molecular_target": "T12, 391-2-DS-Cav1-BZGJ9_gyc7", "T12 construct": "also called sc-v27", "description": "as §1"}, "KXint1": {"molecular_target": "T13, KXint1", "T13 construct": "also called sc-v29", "description": "as §1"}, "KXlinker1": {"molecular_target": "T14, KXlinker1", "T14 construct": "also called sc-v30", "description": "as §1"}, "391-2_DS-Cav1-tzsc3": {"molecular_target": "T15, 391-2_DS-Cav1-tzsc3", "T15 construct": "also called sc-v33", "description": "as §1"}, "[8]": {"molecular_target": "T16, sc9-10_DS-CAV1_bRSV(RB94)_Fd_fp2_ig1", "T16 construct": "also called sc-v34", "description": "as §1"}, "KXlinker2": {"molecular_target": "T17, KXlinker2", "T17 construct": "also called sc-v35", "description": "as §1"}, "[9]": {"molecular_target": "T18, sc9-10_DS-CAV1_bRSV(RB94)_Fd_hp2_fp1_ig1", "T18 construct": "also called sc-v5", "description": "as §1"}, "[10]": {"molecular_target": "T19, RB94 site 0 hRSV DS-Cav1-BZGJ9 Long FdPL", "T19 construct": "also called sc-v6", "description": "as §1"}, "[11]": {"molecular_target": "T20, sc9-10_DS-CAV1_bRSV(RB94)_Fd_hp1_fp1_ig1", "T20 construct": "also called sc-v8", "description": "as §1"}, "[12]": {"molecular_target": "T21, RB94 hu/bov DS-CAV1 A149C-Y458C Long", "T21 construct": "also called DS2-v7", "description": "as §1"}, "[13]": {"molecular_target": "T22, 391-2-DS-Cav1-sc9deleteFS 98C-361C", "T22 construct": "also called DS2-v8", "description": "as §1"}, "[14]": {"molecular_target": "T23, 391-2-DS-Cav1-sc9deleteFS 99C-361C", "T23 construct": "also called DS2-v15", "description": "as §1"}, "[15]": {"molecular_target": "T24, RB94 dscav1T369C-T455C Long S190V", "T24 construct": "also called DS2-v18", "description": "as §1"}, "[16]": {"molecular_target": "T25, 391-2-DS-Cav1-sc9deleteFS 100C-362C", "T25 construct": "also called DS2-v21", "description": "as §1"}, "[17]": {"molecular_target": "T26, 391-2-DS-Cav1_ sc9_S398C-S485C", "T26 construct": "also called DS2-v23", "description": "as §1"}, "[18]": {"molecular_target": "T27, RB94 sc9 DS-CAV1 A149C-Y458C L373R Long K226L", "T27 construct": "also called DS2-v24", "description": "as §1"}, "[19]": {"molecular_target": "T28, 391-2-DS-Cav1_ S398C-S485C", "T28 construct": "also called DS2-v25", "description": "as §1"}, "[20]": {"molecular_target": "391-2-DS-Cav1_ I28C-G464C", "description": "as §1"}, "[21]": {"molecular_target": "T29, 391-2-DS-Cav1_ sc9_T449C-V459C", "T29 construct": "also called DS2-v31", "description": "as §1"}, "[22]": {"molecular_target": "T30, RB94 DS-CAV1 T369C-T455C Long", "T30 construct": "also called DS2-v32", "description": "as §1"}}, "data": [{"binder": "MPE8 antibody (antibody, V domains shown, also called mAb MPE8) VH: EVQLVESGGGLVKPGGSLRLSCAASGFTFSSYSMNWVRQAPGKGLEWVSSISASSSYSDYADSAKGRFTISRDNAKTSLFLQMNSLRAEDTAIYFCARARATGYSSITPYFDIWGQGTLVTVSS VL: QSVVTQTPSVSGAPGQRVTISCTGSSSNIGAGYDVHWYQQLPGTAPKLLIYDNNNRPSGVPDRFSASKSGTSASLAITGLQAEDEADYYCQSYDRNLSGVFGTGTKVTVL", "values": [{"measurement": "ELISA binding value", "setting": "391-2-DS-Cav1-BZGJ9_gyc5", "value": 1.8}, {"measurement": "ELISA binding value", "setting": "[1]", "value": 1.87}, {"measurement": "ELISA binding value", "setting": "[2]", "value": 1.78}, {"measurement": "ELISA binding value", "setting": "[3]", "value": 1.81}, {"measurement": "ELISA binding value", "setting": "[4]", "value": 1.84}, {"measurement": "ELISA binding value", "setting": "[5]", "value": 1.73}, {"measurement": "ELISA binding value", "setting": "391-2-DS-Cav1-IP-5", "value": 1.41}, {"measurement": "ELISA binding value", "setting": "391-2_DS-Cav1-tzsc7", "value": 1.5}, {"measurement": "ELISA binding value", "setting": "[6]", "value": 1.19}, {"measurement": "ELISA binding value", "setting": "[7]", "value": 0.973}, {"measurement": "ELISA binding value", "setting": "391-2_DS-Cav1-tzsc5", "value": 1.22}, {"measurement": "ELISA binding value", "setting": "391-2wt-F_SC_11R", "value": 0.887}, {"measurement": "ELISA binding value", "setting": "391-2-DS-Cav1-BZGJ9_gyc7", "value": 0.821}, {"measurement": "ELISA binding value", "setting": "KXint1", "value": 0.599}, {"measurement": "ELISA binding value", "setting": "KXlinker1", "value": 0.544}, {"measurement": "ELISA binding value", "setting": "391-2_DS-Cav1-tzsc3", "value": 0.433}, {"measurement": "ELISA binding value", "setting": "[8]", "value": 0.464}, {"measurement": "ELISA binding value", "setting": "KXlinker2", "value": 0.361}, {"measurement": "ELISA binding value", "setting": "[9]", "value": 2.25}, {"measurement": "ELISA binding value", "setting": "[10]", "value": 2.2}, {"measurement": "ELISA binding value", "setting": "[11]", "value": 2.16}, {"measurement": "ELISA binding value", "setting": "[12]", "value": 0.29}, {"measurement": "ELISA binding value", "setting": "[13]", "value": 0.43}, {"measurement": "ELISA binding value", "setting": "[14]", "value": 0.229}, {"measurement": "ELISA binding value", "setting": "[15]", "value": 0.371}, {"measurement": "ELISA binding value", "setting": "[16]", "value": 0.0757}, {"measurement": "ELISA binding value", "setting": "[17]", "value": 0.0849}, {"measurement": "ELISA binding value", "setting": "[18]", "value": 0.0872}, {"measurement": "ELISA binding value", "setting": "[19]", "value": 0.0824}, {"measurement": "ELISA binding value", "setting": "[20]", "value": 0.0815}, {"measurement": "ELISA binding value", "setting": "[21]", "value": 0.1}, {"measurement": "ELISA binding value", "setting": "[22]", "value": 0.0667}]}, {"binder": "D25 antibody (antibody, V domains shown, also called mAb D25) VH: QVQLVQSGAEVKKPGSSVMVSCQASGGPLRNYIINWLRQAPGQGPEWMGGIIPVLGTVHYAPKFQGRVTITADESTDTAYIHLISLRSEDTAMYYCATETALVVSTTYLPHYFDNWGQGTLVTVSS VL: DIQMTQSPSSLSAAVGDRVTITCQASQDIVNYLNWYQQKPGKAPKLLIYVASNLETGVPSRFSGSGSGTDFSLTISSLQPEDVATYYCQQYDNLPLTFGGGTKVEIK", "values": [{"measurement": "ELISA binding value", "setting": "391-2-DS-Cav1-BZGJ9_gyc5", "value": 1.93}, {"measurement": "ELISA binding value", "setting": "[1]", "value": 1.86}, {"measurement": "ELISA binding value", "setting": "[2]", "value": 1.92}, {"measurement": "ELISA binding value", "setting": "[3]", "value": 1.88}, {"measurement": "ELISA binding value", "setting": "[4]", "value": 1.7}, {"measurement": "ELISA binding value", "setting": "[5]", "value": 1.67}, {"measurement": "ELISA binding value", "setting": "391-2-DS-Cav1-IP-5", "value": 1.28}, {"measurement": "ELISA binding value", "setting": "391-2_DS-Cav1-tzsc7", "value": 0.997}, {"measurement": "ELISA binding value", "setting": "[6]", "value": 1.13}, {"measurement": "ELISA binding value", "setting": "[7]", "value": 1.01}, {"measurement": "ELISA binding value", "setting": "391-2_DS-Cav1-tzsc5", "value": 0.662}, {"measurement": "ELISA binding value", "setting": "391-2wt-F_SC_11R", "value": 0.739}, {"measurement": "ELISA binding value", "setting": "391-2-DS-Cav1-BZGJ9_gyc7", "value": 0.732}, {"measurement": "ELISA binding value", "setting": "KXint1", "value": 0.416}, {"measurement": "ELISA binding value", "setting": "KXlinker1", "value": 0.399}, {"measurement": "ELISA binding value", "setting": "391-2_DS-Cav1-tzsc3", "value": 0.383}, {"measurement": "ELISA binding value", "setting": "[8]", "value": 0.299}, {"measurement": "ELISA binding value", "setting": "KXlinker2", "value": 0.321}, {"measurement": "ELISA binding value", "setting": "[9]", "value": 2.17}, {"measurement": "ELISA binding value", "setting": "[10]", "value": 2.16}, {"measurement": "ELISA binding value", "setting": "[11]", "value": 2.17}, {"measurement": "ELISA binding value", "setting": "[12]", "value": 0.274}, {"measurement": "ELISA binding value", "setting": "[13]", "value": 0.271}, {"measurement": "ELISA binding value", "setting": "[14]", "value": 0.198}, {"measurement": "ELISA binding value", "setting": "[15]", "value": 0.182}, {"measurement": "ELISA binding value", "setting": "[16]", "value": 0.16}, {"measurement": "ELISA binding value", "setting": "[17]", "value": 0.144}, {"measurement": "ELISA binding value", "setting": "[18]", "value": 0.144}, {"measurement": "ELISA binding value", "setting": "[19]", "value": 0.141}, {"measurement": "ELISA binding value", "setting": "[20]", "value": 0.139}, {"measurement": "ELISA binding value", "setting": "[21]", "value": 0.133}, {"measurement": "ELISA binding value", "setting": "[22]", "value": 0.129}]}]}
